These are literature values, as cited in US20040063697A1, “Compositions of cyclooxygenase-2 selective inhibitors and thrombolytic agents for the treatment or prevention of a vaso-occlusive event” (priority 2002, published 2004).

Data set [1] deals with plasminogen (Homo sapiens, UniProt P00747).
Test in data set [2]: not given
The source holds these as a separate data set.

plasminogen, sequence (P00747 20-810 limits assumed): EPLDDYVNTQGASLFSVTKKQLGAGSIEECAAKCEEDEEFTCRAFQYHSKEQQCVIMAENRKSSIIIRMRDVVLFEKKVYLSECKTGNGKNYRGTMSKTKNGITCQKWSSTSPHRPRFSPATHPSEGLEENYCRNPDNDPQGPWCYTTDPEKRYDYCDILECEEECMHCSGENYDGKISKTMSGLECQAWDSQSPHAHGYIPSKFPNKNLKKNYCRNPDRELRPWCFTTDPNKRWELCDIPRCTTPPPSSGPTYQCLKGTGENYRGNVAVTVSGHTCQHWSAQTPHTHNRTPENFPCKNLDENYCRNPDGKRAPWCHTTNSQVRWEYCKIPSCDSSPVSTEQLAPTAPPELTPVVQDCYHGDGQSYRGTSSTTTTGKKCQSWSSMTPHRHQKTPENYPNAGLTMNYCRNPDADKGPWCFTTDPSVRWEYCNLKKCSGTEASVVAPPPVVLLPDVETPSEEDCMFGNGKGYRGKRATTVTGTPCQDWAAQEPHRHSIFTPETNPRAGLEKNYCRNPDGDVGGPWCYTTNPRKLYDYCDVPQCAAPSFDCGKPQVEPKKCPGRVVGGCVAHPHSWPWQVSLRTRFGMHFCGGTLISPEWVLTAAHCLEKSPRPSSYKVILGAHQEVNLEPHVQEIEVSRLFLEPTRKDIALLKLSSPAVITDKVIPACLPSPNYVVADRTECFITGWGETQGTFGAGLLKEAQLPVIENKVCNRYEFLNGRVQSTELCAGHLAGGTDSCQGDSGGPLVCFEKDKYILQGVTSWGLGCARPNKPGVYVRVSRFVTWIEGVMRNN

B1: Tenecteplase: human derivative of t-PA (protein, UniProt P00750 36-562, looked up, variant T103N N117Q K296A H297A R298A R299A)
Tissue-type plasminogen …: SYQVICRDEKTQMIYQQHQSWLRPVLRSNRVEYCWCNSGRAQCHSVPVKSCSEPRCFNGGTCQQALYFSDFVCQCPEGFAGKCCEIDTRATCYEDQGISYRGNWSTAESGAECTNWQSSALAQKPYSGRRPDAIRLGLGNHNYCRNPDRDSKPWCYVFKAGKYSSEFCSTPACSEGNSDCYFGNGSAYRGTHSLTESGASCLPWNSMILIGKVYTAQNPSAQALGLGKHNYCRNPDGDAKPWCHVLKNRRLTWEYCDVPSCSTCGLRQYSQPQFRIKGGLFADIASHPWQAAIFAAAAASPGERFLCGGILISSCWILSAAHCFQERFPPHHLTVILGRTYRVVPGEEEQKFEVEKYIVHKEFDDDTYDNDIALLQLKSDSSRCAQESSVVRTVCLPPADLQLPDWTECELSGYGKHEALSPFYSERLKEAHVRLYPSSRCTSQHLLNRTVTDNMLCAGDTRSGGPQANLHDACQGDSGGPLVCLNDGRMTLVGIISWGLGCGQKDVPGVYTKVTNYLDWIRDNMRP
For the molecule B1, under “in vivo”, the Elimination result is recorded as “Hepatic” and the “Half-Life” value is 20 to 25 min. Besides, under “in words”, the “plasma clearance time and half-life” value is “lower plasma clearance time and a longer half-life”. In data set [1], the “Method of Plasminogen Activation” value is reported as “Direct”. In data set [2] (in vivo), the Antigenicity result is given as “No”. Besides, the immune response result in data set [2] (when administered to a human) is “no immune response is elicited”.
